From article PMC10567702, “A concerted ATPase cycle of the protein transporter AAA-ATPase Bcs1” (Nature Communications, 2023) come the findings set out here.

Substrate in this data set: Nc1ncnc2c1ncn2[C@@H]1O[C@H](COP(=O)(O)OP(=O)(O)OP(=O)(O)O)[C@@H](O)[C@H]1O
Kind of data set: purified protein. Conditions: conformational turnover per ring (printed as Vmax, maximum turnover rate), reconstituted membranes, 10 mM HEPES pH 7.5, 200 mM NaCl, 2 mM MgCl2, ambient temperature.

B1: Bcs1 (mBcs1) (Mus musculus) (protein)
chain: MPFSDFVLALKDNPYFGAGFGLVGVGTALAMARKGAQLGLVAFRRHYMITLEVPARDRSYAWLLSWLTRHSTRTQHLSVETSYLQHESGRISTKFEFIPSPGNHFIWYQGKWIRVERNRDMQMVDLQTGTPWESVTFTALGTDRKVFFNILEEARALALQQEEGKTVMYTAVGSEWRTFGYPRRRRPLDSVVLQQGLADRIVKDIREFIDNPKWYIDRGIPYRRGYLLYGPPGCGKSSFITALAGELEHSICLLSLTDSSLSDDRLNHLLSVAPQQSLVLLEDVDAAFLSRDLAVENPIKYQGLGRLTFSGLLNALDGVASTEARIVFMTTNYIDRLDPALIRPGRVDLKEYVGYCSHWQLTQMFQRFYPGQAPSLAENFAEHVLKATSEISPAQVQGYFMLYKNDPMGAVHNIESLR
The term Km denotes the substrate concentration at which the rate is half of its maximum. By kcat is commonly meant the number of substrate molecules converted per active site and unit of time at saturation. For the protein B1, the Km is 0.2 µM and the kcat was around 0.17 s⁻¹.
